Article PMC10691330

Columns and labels:
Assay in all cases: packaging into virions
[1] = biological target: HIV-1 M capsid protein (p24) (HIV-1 group M)
[2] = biological target: HIV-1 N capsid protein (p24) (HIV-1 group N)
[3] = biological target: HIV-1 P capsid protein (p24) (HIV-1 group P)
[4] = biological target: HIV-1 O capsid protein (p24) (HIV-1 group O)

Chain of HA-tagged cyclophilin A (CYPA-HA) (P62937 whole entry): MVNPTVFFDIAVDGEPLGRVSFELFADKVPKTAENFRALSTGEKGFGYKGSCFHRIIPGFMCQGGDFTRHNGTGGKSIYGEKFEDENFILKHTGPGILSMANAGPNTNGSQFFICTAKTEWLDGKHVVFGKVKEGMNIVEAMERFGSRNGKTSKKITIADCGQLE

For “HA-tagged cyclophilin A (CYPA-HA) (from UniProt P62937 1-165) (natural protein)”, the percent reduction of virion-associated CYPA by 1 µM CsA [1] was 40%, the percent reduction of virion-associated CYPA by 1 µM CsA [2] was 70% and the percent reduction of virion-associated CYPA by 1 µM CsA [3] was 70%. It also gave a percent reduction of virion-associated CYPA by 1 µM CsA [4] of 70%.
